Measurements as given in paper PMC10938628 (Science Advances, 2022).

Key:
[1] = target: intact CarHC (C-terminal domain of the photoreceptor CarH); experiment: SEC
[2] = target: the molecule itself; experiment: SEC + other: dynamic light scattering
SEC = target: the molecule itself; experiment: SEC

Molecule: intact CarHC (C-terminal domain of the photoreceptor CarH) (domain or fragment)
- stoichiometry N [1]: 4

B1: CarHCC (Phe161-Leu276 of the photoreceptor CarH; C-terminal Rossmann-fold B12-binding segment of split CarHC) (domain or fragment, UniProt Q53W62 161-276, looked up)
chain: FPPGPPVLVTTPPGERHEIGAMLAAYHLRRKGVPALYLGPDTPLPDLRALARRLGAGTVVLSAVLSEPLRALPDGALKDLAPRVFLGGQGAGPEEARRLGAEYMEDLKGLAEALWL
- stoichiometry N [2]: 4

B2: reconstituted split CarHC complex (CarHCN + CarHCC held together by a cobalamin) (complex)
chain 1: PEDLGTGLLEALLRGDLAGAEALFRRGLRFWGPEGVLEHLLLPVLREVGEAWHRGEIGVAEEHLASTFLRARLQELLDLAGFPPGPP
chain 2: B1 chain
- stoichiometry N (SEC): 4
